Results as given in patent publication US20240141072A1 (published 2024).

T1: biotinylated human DLL3 protein expressed as a human IgG1 fusion protein (human, UniProt Q9NYJ7 27-492, limits assumed, biotinylated)
T1 sequence: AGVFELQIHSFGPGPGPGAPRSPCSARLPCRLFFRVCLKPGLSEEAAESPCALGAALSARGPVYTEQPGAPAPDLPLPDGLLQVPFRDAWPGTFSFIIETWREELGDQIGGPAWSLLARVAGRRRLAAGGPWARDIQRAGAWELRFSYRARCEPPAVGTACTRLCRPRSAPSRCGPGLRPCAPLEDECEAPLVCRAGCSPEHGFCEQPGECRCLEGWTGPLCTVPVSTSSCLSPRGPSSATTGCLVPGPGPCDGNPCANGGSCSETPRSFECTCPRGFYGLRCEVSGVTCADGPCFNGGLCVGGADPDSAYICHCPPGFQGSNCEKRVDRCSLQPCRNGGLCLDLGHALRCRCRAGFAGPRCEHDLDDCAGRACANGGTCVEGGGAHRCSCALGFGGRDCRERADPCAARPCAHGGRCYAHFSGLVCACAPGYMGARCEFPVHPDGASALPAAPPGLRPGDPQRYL

B1: 4A02 anti-DLL3 trispecific protein (other)
chain: EVQLVESGGGLVQPGGSLTLSCAASGSSVRFLSMAWYRQAPGKKRELVAGISNDGSTDYIDSVKGRFTISRDNAKNSVYLQMNSLRAEDTAVYYCYAYRWKTRYTYWGQGTLVTVSS
notes: not shown: linker 1808, anti-albumin sdAb, linker 1808, anti-CD3 fragment, His6 1819
B2: 4A04 anti-DLL3 trispecific protein (other)
chain: EVQLVESGGGLVQPGGSLTLSCAASGSRVSFLSMAWYRQAPGKKRELVAGISARGSTDYIDSVKGRFTISRDNAKNSVYLQMNSLRAEDTAVYYCYAYRWSTRYTYWGQGTLVTVSS
notes: as for B1
B3: 4A05 anti-DLL3 trispecific protein (other)
chain: EVQLVESGGGLVQPGGSLTLSCAASGSSVSFLSLAWYRQAPGKKRELVAGISADGSTDYIDSVKGRFTISRDNAKNSVYLQMNSLRAEDTAVYYCYAYRWKTRRTYWGQGTLVTVSS
notes: as for B1
B4: 4A06 anti-DLL3 trispecific protein (other)
chain: EVQLVESGGGLVQPGGSLTLSCAASGSSVRFLSMAWYRQAPGKKRELVAGISRDGSTDYIDSVKGRFTISRDNAKNSVYLQMNSLRAEDTAVYYCYAYRWTTRRTYWGQGTLVTVSS
notes: as for B1
B5: 4A07 anti-DLL3 trispecific protein (other)
chain: EVQLVESGGGLVQPGGSLTLSCAASGSKVSFLSMAWYRQAPGKKRELVAGISADGSTLYIDSVKGRFTISRDNAKNSVYLQMNSLRAEDTAVYYCYAYRWTTRYRYWGQGTLVTVSS
notes: as for B1
B6: 4A08 anti-DLL3 trispecific protein (other)
chain: EVQLVESGGGLVQPGGSLTLSCAASGSSVSFLSMAWYRQAPGKKRELVAGISADGSTNYIDSVKGRFTISRDNAKNSVYLQMNSLRAEDTAVYYCYAYRWRTRYTYWGQGTLVTVSS
notes: as for B1
B7: 4A09 anti-DLL3 trispecific protein (other)
chain: EVQLVESGGGLVQPGGSLTLSCAASGSSVKFLSMAWYRQAPGKKRELVAGISADGSTDYIGSVKGRFTISRDNAKNSVYLQMNSLRAEDTAVYYCYAYRWTTRVTYWGQGTLVTVSS
notes: as for B1
B8: 4A010 anti-DLL3 trispecific protein (other)
chain: EVQLVESGGGLVQPGGSLTLSCAASGSSVRFLSMAWYRQAPGKKRELVAGISADGSTVYIDSVKGRFTISRDNAKNSVYLQMNSLRAEDTAVYYCYAYRWTTRYKYWGQGTLVTVSS
notes: as for B1
B9: 4A011 anti-DLL3 trispecific protein (other)
chain: EVQLVESGGGLVQPGGSLTLSCAASGSKVSFLSMAWYRQAPGKKRELVAGISADGSTTYIDSVKGRFTISRDNAKNSVYLQMNSLRAEDTAVYYCYAYRWKTRYTYWGQGTLVTVSS
notes: as for B1
B10: 4B01 anti-DLL3 trispecific protein (other)
chain: EVQLVESGGGLVQPGGSLTLSCAASGSSVKFLSMAWYRQAPGKKRELVAGISRDGSTDYIDSVKGRFTISRDNAKNSVYLQMNSLRAEDTAVYYCYAYRWTTRFTYWGQGTLVTVSS
notes: as for B1
B11: 4B02 anti-DLL3 trispecific protein (other)
chain: EVQLVESGGGLVQPGGSLTLSCAASGSRVSFLSMAWYRQAPGKKRELVAGISADGSTTYIDSVKGRFTISRDNAKNSVYLQMNSLRAEDTAVYYCYAYRWTTRFTYWGQGTLVTVSS
notes: as for B1
B12: 4B04 anti-DLL3 trispecific protein (other)
chain: EVQLVESGGGLVQPGGSLTLSCAASGSSVLFLSMAWYRQAPGKKRELVAGVSSDGSTDYIDSVKGRFTISRDNAKNSVYLQMNSLRAEDTAVYYCYAYRWRTRYTYWGQGTLVTVSS
notes: as for B1
B13: 4B05 anti-DLL3 trispecific protein (other)
chain: EVQLVESGGGLVQPGGSLTLSCAASGSRVSFLSMAWYRQAPGKKRELVAGISADGHTDYIDSVKGRFTISRDNAKNSVYLQMNSLRAEDTAVYYCYAYRWTTRYTHWGQGTLVTVSS
notes: as for B1
B14: 4B06 anti-DLL3 trispecific protein (other)
chain: EVQLVESGGGLVQPGGSLTLSCAASGSRVSFLSMAWYRQAPGKKRELVAGISADGSTDYFDSVKGRFTISRDNAKNSVYLQMNSLRAEDTAVYYCYAYRWTRRYTYWGQGTLVTVSS
notes: as for B1
B15: 4B08 anti-DLL3 trispecific protein (other)
chain: EVQLVESGGGLVQPGGSLTLSCAASGSSVSFMSMAWYRQAPGKKRELVAGISADGSTDYIASVKGRFTISRDNAKNSVYLQMNSLRAEDTAVYYCYAYRWTTRSTYWGQGTLVTVSS
notes: as for B1
B16: 4B09 anti-DLL3 trispecific protein (other)
chain: EVQLVESGGGLVQPGGSLTLSCAASGSSVSFLSMAWYRQAPGKKRELVAGISADGSTDYISSVKGRFTISRDNAKNSVYLQMNSLRAEDTAVYYCYAYSWTTRYTYWGQGTLVTVSS
notes: as for B1
B17: 4C01 anti-DLL3 trispecific protein (other)
chain: EVQLVESGGGLVQPGGSLTLSCAASGSSVRFLSMAWYRQAPGKKRELVAGISADGSTVYIDSVKGRFTISRDNAKNSVYLQMNSLRAEDTAVYYCYAYRWKTRYTYWGQGTLVTVSS
notes: as for B1
B18: 4C02 anti-DLL3 trispecific protein (other)
chain: EVQLVESGGGLVQPGGSLTLSCAASGSKVSFLSMAWYRQAPGKKRELVAGISADGSTTYIDSVKGRFTISRDNAKNSVYLQMNSLRAEDTAVYYCYAYRWTTRFTYWGQGTLVTVSS
notes: as for B1
B19: 4C03 anti-DLL3 trispecific protein (other)
chain: EVQLVESGGGLVQPGGSLTLSCAASGSKVSFMSMAWYRQAPGKKRELVAGISVDGSTDYIDSVKGRFTISRDNAKNSVYLQMNSLRAEDTAVYYCYAYRWRTRYTYWGQGTLVTVSS
notes: as for B1
B20: 4C05 anti-DLL3 trispecific protein (other)
chain: EVQLVESGGGLVQPGGSLTLSCAASGSSVSNLSMAWYRQAPGKKRELVAGISADGSTAYIDSVKGRFTISRDNAKNSVYLQMNSLRAEDTAVYYCYAYRWTTRRTYWGQGTLVTVSS
notes: as for B1
B21: 4C07 anti-DLL3 trispecific protein (other)
chain: EVQLVESGGGLVQPGGSLTLSCAASGSKVSFLSMAWYRQAPGKKRELVAGISADGSKDYIDSVKGRFTISRDNAKNSVYLQMNSLRAEDTAVYYCYAYRWTTRLTYWGQGTLVTVSS
notes: as for B1
B22: 4C08 anti-DLL3 trispecific protein (other)
chain: EVQLVESGGGLVQPGGSLTLSCVASGSQVSFLSMAWYRQAPGKKRELVAGISADGSTDYFDSVKGRFTISRDNAKNSVYLQMNSLRAEDTAVYYCYAYRWTRRYTYWGQGTLVTVSS
notes: as for B1
B23: 4C010 anti-DLL3 trispecific protein (other)
chain: EVQLVESGGGLVQPGGSLTLSCAASGSKVSFMSMAWYRQAPGKKRELVAGISADGSTDYIDSVKGRFTISRDNAKNSVYLQMNSLRAEDTAVYYCYAYRWTTRLTYWGQGTLVTVSS
notes: as for B1
B24: 4C011 anti-DLL3 trispecific protein (other)
chain: EVQLVESGGGLVQPGGSLTLSCAASGSRVSFLSMAWYRQAPGKKRELVAGISADGSTVYIDSVKGRFTISRDNAKNSVYLQMNSLRAEDTAVYYCYAYRWTRRYTYWGQGTLVTVSS
notes: as for B1
B25: 4D01 anti-DLL3 trispecific protein (other)
chain: EVQLVESGGGLVQPGGSLTLSCAASGSSVRFLSMAWYRQAPGKKRELVAGISADGSTVYIDSVKGRFTISRDNAKNSVYLQMNSLRAEDTAVYYCYAYRWTTRRTYWGQGTLVTVSS
notes: as for B1
B26: 4D02 anti-DLL3 trispecific protein (other)
chain: EVQLVESGGGLVQPGGSLTLSCAASGSKVSFLSMAWYRQAPGKKRELVAGISARGSTDYIDSVKGRFTISRDNAKNSVYLQMNSLRAEDTAVYYCYAYQWTTRYTYWGQGTLVTVSS
notes: as for B1
B27: 4D03 anti-DLL3 trispecific protein (other)
chain: EVQLVESGGGLVQPGGSLTLSCAASGSSVRFLSMAWYRQAPGKKRELVAGISATGSTDYIDSVKGRFTISRDNAKNSVYLQMNSLRAEDTAVYYCYAYRWTRRYTYWGQGTLVTVSS
notes: as for B1
B28: 4D04 anti-DLL3 trispecific protein (other)
chain: EVQLVESGGGLVQPGGSLTLSCAASGSSVSFLSIAWYRQAPGKKRELVAGISKDGSTDYIDSVKGRFTISRDNAKNSVYLQMNSLRAEDTAVYYCYAYRWTTRMTYWGQGTLVTVSS
notes: as for B1
B29: 4D05 anti-DLL3 trispecific protein (other)
chain: EVQLVESGGGLVQPGGSLTLSCAASGSSSSFLSMAWYRQAPGKKRELVAGISADGSTVYIDSVKGRFTISRDNAKNSVYLQMNSLRAEDTAVYYCYAYRWTTRRTYWGQGTLVTVSS
notes: as for B1
B30: 4D06 anti-DLL3 trispecific protein (other)
chain: EVQLVESGGGLVQPGGSLTLSCAASGSSVKFLSMAWYRQAPGKKRELVAGISPDGSTDYIDSVKGRFTISRDNAKNSVYLQMNSLRAEDTAVYYCYAYRWTTRYRYWGQGTLVTVSS
notes: as for B1
B31: 4D08 anti-DLL3 trispecific protein (other)
chain: EVQLVESGGGLVQPGGSLTLSCAASGSSVNFLSMAWYRQAPGKKRELVAGISADGSTHYIDSVKGRFTISRDNAKNSVYLQMNSLRAEDTAVYYCYAYRWLTRYTYWGQGTLVTVSS
notes: as for B1
B32: 4D010 anti-DLL3 trispecific protein (other)
chain: EVQLVESGGGLVQPGGSLTLSCAASGSSVSFLSMAWYRQAPGKKRELVAGISADGSTDYIHSVKGRFTISRDNAKNSVYLQMNSLRAEDTAVYYCYAYRWRTRYTYWGQGTLVTVSS
notes: as for B1

Target: T1, biotinylated human DLL3 protein …
Assay: Octet BLI, single 50 nM
Procedure, shortened: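 Affinities reflect binding of the trispecific constructs, supplied as conditioned medium of known protein concentration rather than purified material, to immobilised human DLL3 fusion protein.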

| Kd [nM] | Binder |
| --- | --- |
| 9 | B1 |
| 35 | B2 |
| 9.4 | B3 |
| 13 | B4 |
| 9.8 | B5 |
| 24 | B6 |
| 9 | B7 |
| 2.3 | B8 |
| 5.6 | B9 |
| 11 | B10 |
| 7.1 | B11 |
| 12 | B12 |
| 18 | B13 |
| 16 | B14 |
| 10 | B15 |
| 5.4 | B16 |

| Kd [nM] | Binder |
| --- | --- |
| 5.1 | B17 |
| 6.8 | B18 |
| 6.6 | B19 |
| 8.3 | B20 |
| 7.5 | B21 |
| 16 | B22 |
| 7 | B23 |
| 6 | B24 |
| 3.7 | B25 |
| 30 | B26 |
| 26 | B27 |
| 8.6 | B28 |
| 6.5 | B29 |
| 7.5 | B30 |
| 5.9 | B31 |
| 9.9 | B32 |
